Reference: patent publication US11306156

How the values were obtained:
[1] = target: D3H44 Fab heavy chain L124E_L143E_K145M, C-terminal ABD2-His6 tag; assay: LCCA set 9259 (co-expression; SPR read-out of light-chain tags; L1:L2 DNA 1:3, normalized to 1:1); competing light chain m17
[2] = target: D3H44 Fab heavy chain L124E_L143D_K145T, C-terminal ABD2-His6 tag; assay: LCCA set 9217 (co-expression; SPR read-out of light-chain tags; L1:L2 DNA 1:3, normalized to 1:1); competing light chain m16
[3] = target: D3H44 Fab heavy chain L124E_L143E_K145M, C-terminal ABD2-His6 tag; assay: LCCA set 9257 (co-expression; SPR read-out of light-chain tags; L1:L2 DNA 1:3, normalized to 1:1); competing light chain m15
[4] = target: D3H44 Fab heavy chain L124E_L143E_K145M, C-terminal ABD2-His6 tag; assay: LCCA set 9263 (co-expression; SPR read-out of light-chain tags; L1:L2 DNA 1:3, normalized to 1:1); competing light chain m14
[5] = target: D3H44 Fab heavy chain L124E_L143D_K145T, C-terminal ABD2-His6 tag; assay: LCCA set 9214 (co-expression; SPR read-out of light-chain tags; L1:L2 DNA 1:3, normalized to 1:1); competing light chain m15
[6] = target: D3H44 Fab heavy chain L124E_L143E_K145M, C-terminal ABD2-His6 tag; assay: LCCA (co-expression, SPR read-out of light chain tags), L1:L2 DNA 1:3 normalised to 1:1; competitor m13
[7] = target: D3H44 Fab heavy chain L124E_L143D_K145M, C-terminal ABD2-His6 tag; assay: as above
[8] = target: D3H44 Fab heavy chain L124R_Q179K, C-terminal ABD2-His6 tag; assay: as above
[9] = target: D3H44 Fab heavy chain L124E_L143D_K145T, C-terminal ABD2-His6 tag; assay: as above
[10] = target: D3H44 Fab heavy chain L124R_S186K, C-terminal ABD2-His6 tag; assay: LCCA (co-expression, SPR read-out of light chain tags), L1:L2 DNA 1:3 normalised to 1:1; competitor m17
[11] = target: D3H44 Fab heavy chain L124E_L143E_K145T, C-terminal ABD2-His6 tag; assay: as above
[12] = target: D3H44 Fab heavy chain L124R_S186R, C-terminal ABD2-His6 tag; assay: as above
[13] = target: D3H44 Fab heavy chain L124E_L143E_K145T, C-terminal ABD2-His6 tag; assay: LCCA (co-expression, SPR read-out of light chain tags), L1:L2 DNA 1:3 normalised to 1:1; competitor m16
[14] = target: D3H44 Fab heavy chain L124R_Q179K, C-terminal ABD2-His6 tag; assay: as above
[15] = target: D3H44 Fab heavy chain L124E_L143D_K145T, C-terminal ABD2-His6 tag; assay: as above
[16] = target: D3H44 Fab heavy chain L124R_S186R, C-terminal ABD2-His6 tag; assay: as above
[17] = target: D3H44 Fab heavy chain L124R_S186R, C-terminal ABD2-His6 tag; assay: LCCA set 9505 (co-expression; SPR read-out of light-chain tags; L1:L2 DNA 1:3, normalized to 1:1); competing light chain m15
[18] = target: D3H44 Fab heavy chain L124E_L143E_K145T, C-terminal ABD2-His6 tag; assay: LCCA co-expression, SPR tag read-out; DNA 1:3 norm. to 1:1; competing light chain m11
[19] = target: D3H44 Fab heavy chain L124R_Q179K, C-terminal ABD2-His6 tag; assay: as above
[20] = target: D3H44 Fab heavy chain L124R_S186K, C-terminal ABD2-His6 tag; assay: LCCA set 9451 (co-expression; SPR read-out of light-chain tags; L1:L2 DNA 1:3, normalized to 1:1); competing light chain m15
[21] = target: D3H44 Fab heavy chain L124E_L143D_K145M, C-terminal ABD2-His6 tag; assay: LCCA set 9176 (co-expression; SPR read-out of light-chain tags; L1:L2 DNA 1:3, normalized to 1:1); competing light chain m15
[22] = target: D3H44 Fab heavy chain L124R_S186K, C-terminal ABD2-His6 tag; assay: LCCA set 9473 (co-expression; SPR read-out of light-chain tags; L1:L2 DNA 1:3, normalized to 1:1); competing light chain m16
[23] = target: D3H44 Fab heavy chain L124E_L143E_K145M, C-terminal ABD2-His6 tag; assay: LCCA co-expression, SPR tag read-out; DNA 1:3 norm. to 1:1; competing light chain m13
[24] = target: D3H44 Fab heavy chain L124E_L143E_K145T, C-terminal ABD2-His6 tag; assay: as above
[25] = target: D3H44 Fab heavy chain L124R_Q179K, C-terminal ABD2-His6 tag; assay: as above
[26] = target: D3H44 Fab heavy chain L124E_L143E_K145T, C-terminal ABD2-His6 tag; assay: LCCA set 9298 (co-expression; SPR read-out of light-chain tags; L1:L2 DNA 1:3, normalized to 1:1); competing light chain m17
[27] = target: D3H44 Fab heavy chain L124R_Q179K, C-terminal ABD2-His6 tag; assay: LCCA set 9384 (co-expression; SPR read-out of light-chain tags; L1:L2 DNA 1:3, normalized to 1:1); competing light chain m17
[28] = target: D3H44 Fab heavy chain L124E_L143E_K145T, C-terminal ABD2-His6 tag; assay: LCCA set 9320 (co-expression; SPR read-out of light-chain tags; L1:L2 DNA 1:3, normalized to 1:1); competing light chain m18
[29] = target: D3H44 Fab heavy chain L124R_Q179K, C-terminal ABD2-His6 tag; assay: LCCA set 9388 (co-expression; SPR read-out of light-chain tags; L1:L2 DNA 1:3, normalized to 1:1); competing light chain m17
[30] = target: D3H44 Fab heavy chain L124R_S186K, C-terminal ABD2-His6 tag; assay: LCCA set 9488 (co-expression; SPR read-out of light-chain tags; L1:L2 DNA 1:3, normalized to 1:1); competing light chain m18
[31] = target: D3H44 Fab heavy chain L124R_S186R, C-terminal ABD2-His6 tag; assay: LCCA set 9550 (co-expression; SPR read-out of light-chain tags; L1:L2 DNA 1:3, normalized to 1:1); competing light chain m14
[32] = target: D3H44 Fab heavy chain L124E_L143E_K145T, C-terminal ABD2-His6 tag; assay: LCCA (co-expression, SPR read-out of light chain tags), L1:L2 DNA 1:3 normalised to 1:1; competitor m13
[33] = target: D3H44 Fab heavy chain L124E_L143E_K145M, C-terminal ABD2-His6 tag; assay: LCCA (co-expression, SPR read-out of light chain tags), L1:L2 DNA 1:3 normalised to 1:1; competitor m16
[34] = target: D3H44 Fab heavy chain L124R_S186K, C-terminal ABD2-His6 tag; assay: as above
[35] = target: D3H44 Fab heavy chain L124R_S186K, C-terminal ABD2-His6 tag; assay: LCCA co-expression, SPR tag read-out; DNA 1:3 norm. to 1:1; competing light chain m13
[36] = target: D3H44 Fab heavy chain L124E_L143D_K145T, C-terminal ABD2-His6 tag; assay: as above
[37] = target: D3H44 Fab heavy chain L124E_L143E_K145M, C-terminal ABD2-His6 tag; assay: LCCA set 9266 (co-expression; SPR read-out of light-chain tags; L1:L2 DNA 1:3, normalized to 1:1); competing light chain m17
[38] = target: D3H44 Fab heavy chain L124E_L143E_K145T, C-terminal ABD2-His6 tag; assay: LCCA set 9323 (co-expression; SPR read-out of light-chain tags; L1:L2 DNA 1:3, normalized to 1:1); competing light chain m14
[39] = target: D3H44 Fab heavy chain L124E_L143E_K145T, C-terminal ABD2-His6 tag; assay: LCCA set 9316 (co-expression; SPR read-out of light-chain tags; L1:L2 DNA 1:3, normalized to 1:1); competing light chain m17

D3H44 light chain Q124K_V133G_S176R_T178K, N-terminal HA or FLAG tag
H1L1:H1L2 normalized median ratio (H1L1 part) [1]: 84%
H1L1:H1L2 normalized median scalar value ln(r1/f1) [1]: 1.67
H1L1:H1L2 normalized median ratio (H1L1 part) [2]: 82%
H1L1:H1L2 normalized median scalar value ln(r1/f1) [2]: 1.52
H1L1:H1L2 normalized median ratio (H1L1 part) [3]: 84%
H1L1:H1L2 normalized median scalar value ln(r1/f1) [3]: 1.65
H1L1:H1L2 normalized median ratio (H1L1 part) [4]: 88%
H1L1:H1L2 normalized median scalar value ln(r1/f1) [4]: 1.95
H1L1:H1L2 normalized median ratio (H1L1 part) [5]: 85%
H1L1:H1L2 normalized median scalar value ln(r1/f1) [5]: 1.71
H1L1:H1L2 normalized median ratio [6]: 85%
H1L1:H1L2 normalized median scalar value ln(r1/f1) [6]: 1.77
H1L1:H1L2 normalized median ratio [7]: 85%
H1L1:H1L2 normalized median scalar value ln(r1/f1) [7]: 1.76
H2L2:H2L1 normalized median ratio [8]: 4%
H1L1:H1L2 normalized median ratio [9]: 84%
H1L1:H1L2 normalized median scalar value ln(r1/f1) [9]: 1.66
H2L2:H2L1 normalized median ratio [10]: 7%
H1L1:H1L2 normalized median ratio [11]: 87%
H1L1:H1L2 normalized median scalar value ln(r1/f1) [11]: 1.89
H2L2:H2L1 normalized median ratio [12]: 6%
H1L1:H1L2 normalized median ratio [13]: 89%
H1L1:H1L2 normalized median scalar value ln(r1/f1) [13]: 2.08
H2L2:H2L1 normalized median ratio [14]: 4%
H1L1:H1L2 normalized median ratio [15]: 81%
H2L2:H2L1 normalized median ratio [16]: 8%
H2L2:H2L1 normalized median ratio (H2L1 part) [17]: 6%
H1L1:H1L2 normalized median ratio (% (ratio normalized to 100)) [18]: 89
H1L1:H1L2 normalized median scalar value ln(r1/f1) [18]: 2.12
H2L2:H2L1 normalized median ratio (% (ratio normalized to 100)) [19]: 4
H2L2:H2L1 normalized median ratio (H2L1 part) [20]: 7%
H1L1:H1L2 normalized median ratio (H1L1 part) [21]: 83%
H1L1:H1L2 normalized median scalar value ln(r1/f1) [21]: 1.62
H2L2:H2L1 normalized median ratio (H2L1 part) [22]: 7%
H1L1:H1L2 normalized median ratio (% (ratio normalized to 100)) [23]: 88
H1L1:H1L2 normalized median scalar value ln(r1/f1) [23]: 1.95
H1L1:H1L2 normalized median ratio (% (ratio normalized to 100)) [24]: 89
H1L1:H1L2 normalized median scalar value ln(r1/f1) [24]: 2.08
H2L2:H2L1 normalized median ratio (% (ratio normalized to 100)) [25]: 4
H1L1:H1L2 normalized median ratio (H1L1 part) [26]: 88%
H2L2:H2L1 normalized median ratio (H2L1 part) [27]: 8%

D3H44 light chain Q124K_V133G_S176R_T178R, N-terminal HA or FLAG tag
H1L1:H1L2 normalized median ratio (H1L1 part) [28]: 86%
H1L1:H1L2 normalized median scalar value ln(r1/f1) [28]: 1.82
H2L2:H2L1 normalized median ratio (H2L1 part) [29]: 8%
H2L2:H2L1 normalized median ratio (H2L1 part) [30]: 9%
H2L2:H2L1 normalized median ratio (H2L1 part) [31]: 11%
H1L1:H1L2 normalized median ratio [6]: 87%
H1L1:H1L2 normalized median scalar value ln(r1/f1) [6]: 1.9
H1L1:H1L2 normalized median ratio [32]: 90%
H1L1:H1L2 normalized median scalar value ln(r1/f1) [32]: 2.15
H2L2:H2L1 normalized median ratio [8]: 7%
H1L1:H1L2 normalized median ratio [33]: 88%
H2L2:H2L1 normalized median ratio [34]: 7%
H1L1:H1L2 normalized median ratio [15]: 87%
H1L1:H1L2 normalized median ratio (% (ratio normalized to 100)) [23]: 88
H2L2:H2L1 normalized median ratio (% (ratio normalized to 100)) [35]: 7
H1L1:H1L2 normalized median ratio (% (ratio normalized to 100)) [24]: 91
H1L1:H1L2 normalized median scalar value ln(r1/f1) [24]: 2.34
H2L2:H2L1 normalized median ratio (% (ratio normalized to 100)) [25]: 5
H1L1:H1L2 normalized median ratio (% (ratio normalized to 100)) [36]: 87
H1L1:H1L2 normalized median ratio (H1L1 part) [37]: 84%
H1L1:H1L2 normalized median scalar value ln(r1/f1) [37]: 1.67
H1L1:H1L2 normalized median ratio (H1L1 part) [38]: 91%
H1L1:H1L2 normalized median scalar value ln(r1/f1) [38]: 2.34
H1L1:H1L2 normalized median ratio (H1L1 part) [39]: 88%
H1L1:H1L2 normalized median scalar value ln(r1/f1) [39]: 2
